According to patent US20250339531A1, “DUX4 POLYPEPTIDES AND NUCLEIC ACIDS FOR TREATING INFLAMMATORY AND AUTOIMMUNE CONDITIONS” (Fred Hutchinson Cancer Center, priority 2021, published 2025):
Entries after “also recorded” stand apart in the source; their conditions may differ.

Legend:
[1] = test system: interferon-stimulated genes IFIH1, ISG20, CXCL9, and CD74; experiment: IFNG induction of interferon-stimulated genes, RT-qPCR in MB135 cells with doxycycline-inducible transgenes; type: cell-based, human; settings: MB135 cells, doxycycline-induced transgene, continuous protocol, IFNG 16 h
Description: All myoblast experiments were conducted in immortalized MB135 or MB200 myoblast cell lines (isolated from a control or FSHD2 subject, respectively cultured in Ham's F-10 Nutrient Mix (Gibco) supplemented with 15% fetal bovine serum (Hyclone), 100 U/100 μg/ml penicillin/streptomycin (Gibco), 1 μM dexamethasone (Sigma), and 10 ng/ml recombinant human basic fibroblast growth factor (PeproTech). To differentiate the myoblasts to myotubes, media was changed to DMEM supplemented with 10 μg/ml insulin (Sigma) and 10 μg/ml transferrin (Sigma). Cell lines containing doxycycline-inducible transgenes were additionally cultured with 2 μg/mL puromycin (Sigma). Transgenes were induced with 1 μg/mL of doxycycline (Sigma) for 4 hours prior to other treatments for a total of 20 hrs. The Kitra-SRS cells (RRID:CVCL_YI69) were provided by Dr. H. Otani and Osaka University (Nakai et al., 2019) and were cultured in DMEM supplemented with 10% fetal bovine serum (Hyclone) and 100 U/100 μg/ml penicillin/streptomycin (Gibco). Biological replicates consisted of independent but parallel experiments, such as simultaneously stimulating three cell culture plates with IFNγ. Technical replicates consisted of repeat measurements of the same biological sample, such as loading the same biological sample in triplicate for analysis by RT-qPCR.
Myoblasts were transfected with either (final concentrations) 10 μM 2′,3′-cGAMP (Sigma Aldrich), 2 μg/mL poly(I:C) (Invitrogen), or 1 μg/mL 3′ppp-dsRNA RIG-I ligand (Dan Stetson Lab, UW) using Lipofectamine 2000 according to manufacturer's protocol, or were stimulated with 1000U IFNβ (PeproTech) or 200 ng/ml IFNγ (R+D Systems) by addition directly to cell culture medium. After 16 hours of immune stimulation, RNA was collected from cells using the NucleoSpin RNA Kit (Macherey-Nagel) according to manufacturer's instructions. RNA samples were quantified by nanodrop and 1 μg of RNA per sample was treated with DNase I Amplification Grade (Thermo Fisher), and then synthesized into cDNA using the Superscript IV First-Strand Synthesis System, including oligo dT primers (Invitrogen). qPCR was run in 384-well plates on an Applied Biosystems QuantStudio 6 Flex Real-Time PCR System (ABI) and analyzed in Microsoft Excel.

[2] = test system: STAT1; experiment: Anti-FLAG co-immunoprecipitation and western blot for STAT1; type: binding, human; settings: anti-FLAG IP from MB135 cells ± IFNG
Description: Centrifugation at 2500 rcf at 4° C. for 5 min pelleted the nuclei, supernatant was discarded, and nuclei resuspended in 1 mL IP buffer pH 7.4 (25 mM Tris-HCl pH 7.5, 175 mM NaCl, 1 mM EDTA, 0.2% NP-40, 5% glycerol) and incubated for 1 hour at 4° C. with rotation then spun at 21000 rcf for 10 minutes at 4° C. to pellet insoluble debris. Protein concentration was determined using the Pierce BCA Protein Assay Kit (ThermoFisher, 23225). An equivalent amount of protein per sample was pre-cleared with Dynabeads Protein G (Invitrogen) bound to mouse IgG (Abcam #131368) for 1 hour at 4° C. with rotation. FLAG-tagged constructs were then immunoprecipitated with Dynabeads Protein G beads coupled to mouse anti-FLAG M2 mAb (Sigma F3165) for 3 hours at 4° C. with rotation. Beads were washed 3× with 1 mL IP buffer and eluted by adding 2× NuPage LDS Sample Buffer (Thermo Fisher, diluted from 4× with PBS) to the beads and heating for 10 minutes at 70° C.
Antibodies against STAT1 [EPR4407] (ab109320), pSTAT1 Y701 [M135] (ab29045), pSTAT1 S727 [EPR3146] (ab109461), YBX1 [EP2708Y] (ab76149), PABPC1 (ab21060), hnRNPM [EPR13509 (B)] (ab177957), PRKDC [Y393] (ab32566), and HSP90AB1 [EPR16621] (ab203085) were purchased from Abcam. Antibodies against FLAG tag [M2] (F1804) and [M2] (F3146) were purchased from Sigma Aldrich. Antibodies against DDX3X [D19B4] (8192S), hnRNPK [R332] (4675S), TRIM28 [C42G12] […]

[3] = test system: proteins that co-immunoprecipitated with DUX4-CTD constructs expressed in MB135 myoblasts; experiment: LC-MS of proteins co-immunoprecipitated with DUX4-CTD (Table 1) and western validation; type: binding, human; settings: kind of count not given
Summary of the method: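 FLAG-tagged DUX4-CTD expressed in doxycycline-induced MB135 myoblasts, some also IFNG-treated; nuclear lysates in pH 7.4 NP-40 IP buffer were pre-cleared, then anti-FLAG immunoprecipitated 3 h at 4 °C. For LC-MS, FLAG-peptide elution, in-gel trypsin digest, Orbitrap analysis; proteins with ≥2 PSMs in both experiments categorised and ranked by total PSMs.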

B1: iNLS-CTD: 3×FLAG tag nls construct encoding terminal 86 amino acids of DUX4 (aa 339-424), SEQ ID NOS: 12 and 13 (protein)
chain: MDYKDHDGDYKDHDIDYKDDDDKPKKKRKVNASASARQGQMQGIPAPSQALQEPAPWSALPCGLLLDELLASPEFLQQAQPLLETEAPGELEASEEAASLEAPLSEEEYRALLEEL
modifications: 3xFLAG tag and NLS
suppression of IFNG induction of ISGs (IFIH1, ISG20, CXCL9, CD74) [1]: suppresses a portion of the IFNG-induced ISG genes, CXCL9 and CD74 | suppression of IFNG induction of ISGs (IFIH1, ISG20, CXCL9, CD74) ([1]; listed as iDUX4aa339-424): maintained ISG suppression, though not as strongly on the IFIH1 and ISG20 genes | suppression of IFNG induction of ISGs (IFIH1, ISG20, CXCL9, CD74) ([1]; listed as iNLS CTD): suppresses two of the four IFNG-induced

B2: CIC-DUX4 fusion: Kitra-SRS CIC-DUX4 fusion protein containing the terminal 98 amino acids of DUX4, doxycycline inducible (protein)
chain: MDYKDHDGDYKDHDIDYKDDDDKPPKRMRREPKKKRKVNLEGTSGGILQKEFWRNRIQYNQSQKDILQSWFQHDPFPDKAAREQLAKEIGVPESNIQVWFKNYRVKQRKLDYKCFSEKDQTQGHDQSQHLTQEYLPKEARQKQTFITWTQKNRLVQAFERNPFPDIATRKKLAEQTGLQESRIQMWFQKQRSLYLKKSRMEPMNLLVDDPNERPDATVGWHPINLFLPTDSSHYFSCSHSSSGHETLPPVLPSTQAPWDPFRFHVSQGPNVMIMQPTQAVQEGEKSDQPLIIPNHLLTLPILTKDLDTPTPFWLQYQEEHQNHKEHSGSGVPQVKSHSQPEPEHREQQPLNLGQFDISNILQRWDEICQALLAEWEPLKGTH
suppression of IFNG induction of ISGs (IFIH1, ISG20, CXCL9, CD74) [1]: suppressed IFNγ-induction of ISGs IFIH1, CXCL9, and CD74, although not ISG20

B3: mouse Dux: mouse ortholog of human DUX4, SEQ ID NO:15, doxycycline inducible codon altered SEQ ID NO:16 (protein, listed as Mus musculus)
chain: MAEAGSPVGGSGVARESRRRRKTVWQAWQEQALLSTFKKKRYLSFKERKELAKRMGVSDCRIRVWFQNRRNRSGEEGHASKRSIRGSRRLASPQLQEELGSRPQGRGMRSSGRRPRTRLTSLQLRILGQAFERNPRPGFATREELARDTGLPEDTIHIWFQNRRARRRHRRGRPTAQDQDLLASQGSDGAPAGPEGREREGAQENLLPQEEAGSTGMDTSSPSDLPSFCGESQPFQVAQPRGAGQQEAPTRAGNAGSLEPLLDQLLDEVQVEEPAPAPLNLDGDPGGRVHEGSQESFWPQEEAGSTGMDTSSPSDSNSFCRESQPSQVAQPCGAGQEDARTQADSTGPLELLLLDQLLDEVQKEEHVPVPLDWGRNPGSREHEGSQDSLLPLEEAVNSGMDTSIPSIWPTFCRESQPPQVAQPSGPGQAQAPTQGGNTDPLELFLYQLLDEVQVEEHAPAPLNWDVDPGGRVHEGSWESFWPQEEAGSTGLDTSSPSDSNSFFRESKPSQVAQRRGAGQEDARTQADSTGPLELLLFDQLLDEVQKEEHVPAPLDWGRNPGSMEHEGSQDSLLPLEEAANSGRDTSIPSIWPAFCRKSQPPQVAQPSGPGQAQAPIQGGNTDPLELFLDQLLTEVQLEEQGPAPVNVEETWEQMDTTPDLPLTSEEYQTLLDML
co-immunoprecipitation with STAT1 / phosphorylated STAT1 [2]: confirmed the co-immunoprecipitation of STAT1 and both phosphorylated pSTAT1-Y701 and pSTAT1-S727 | suppression of IFNG induction of ISGs (IFIH1, ISG20, CXCL9, CD74) [1]: completely blocked the IFNG induction of these ISG genes | suppression of IFNG induction of ISGs (IFIH1, ISG20, CXCL9, CD74) ([1]; listed as Dux): repress the panel of ISGs even more robustly than the full-length or CTD portion of human DUX4 | suppression of IFNG induction of ISGs (IFIH1, ISG20, CXCL9, CD74) ([1]; listed as mouse DUX): completely blocked

B4: DDX3X (protein)
chain: SHVAVENALGLDQQFAGLDLNSSDNQSGGSTASKGRYIPPHLRNREATKGFYDKDSSGWSSSKDKDAYSSFGSRSDSRGKSSFFSDRGSGSRGRFDDRGRSDYDGIGSRGDRSGFGKFERGGNSRWCDKSDEDDWSKPLPPSERLEQELFSGGNTGINFEKYDDIPVEATGNNCPPHIESFSDVEMGEIIMGNIELTRYTRPTPVQKHAIPIIKEKRDLMACAQTGSGKTAAFLLPILSQIYSDGPGEALRAMKENGRYGRRKQYPISLVLAPTRELAVQIYEEARKFSYRSRVRPCVVYGGADIGQQIRDLERGCHLLVATPGRLVDMMERGKIGLDFCKYLVLDEADRMLDMGFEPQIRRIVEQDTMPPKGVRHTMMFSATFPKEIQMLARDFLDEYIFLAVGRVGSTSENITQKVVWVEESDKRSFLLDLLNATGKDSLTLVFVETKKGADSLEDFLYHEGYACTSIHGDRSQRDREEALHQFRSGKSPILVATAVAARGLDISNVKHVINFDLPSDIEEYVHRIGRTGRVGNLGLATSFFNERNINITKDLLDLLVEAKQEVPSWLENMAYEHHYKGSSRGRSKSSRFSGGFGARDYRQSSGASSSSFSSSRASSSRSGGGGHGSSRGFGGGGYGGFYNSDGYGGNYNSQGVDWWGN
4. + IFNG mix ([3]; LC-MS value per protein co-immunoprecipitated from MB135 myoblasts, + IFNG mix sample (no Dox)): 1 | 4. mL1dL2 + Dox + IFNG ([3]; LC-MS value per protein co-immunoprecipitated with DUX4-CTD construct mL1dL2 in MB135 myoblasts, + Dox + IFNG): 2

B5: longCTDmL1dL2: longCTD with first (L)LxxL(L) motif disrupted and second deleted, SEQ ID NOS: 10 and 11 (protein)
chain: MDYKDHDGDYKDHDIDYKDDDDKPPKRMRREPKKKRKVGRAPAQAGGLCSAAPGGGHPAPSWVAFAHTGAWGTGLPAPHVPCAPGALPQGAFVSQAARAAPALQPSQAAPAEGISQPAPARGDFAYAAPAPPDGALSHPQAPRWPPHPGKSREDRDPQRDGLPGPCAVAQPGPAQAGPQGQGVLAPPTSQGSPWWGWGRGPQVAGAAWEPQAGAAPPPQPAPPDASASARQGQMQGIPAPSQALQEPAPWSALPCGLLAAEAAASPEFLQQAQPLLETEAPGELEASEEAASLEAPLSEEEYRA
co-immunoprecipitation with STAT1 / phosphorylated STAT1 [2]: both show binding to STAT1; also recorded: STAT1 is associated | suppression of IFNG induction of ISGs (IFIH1, ISG20, CXCL9, CD74) [1]: does not suppress any of the IFNG-induced ISG genes | suppression of IFNG induction of ISGs (IFIH1, ISG20, CXCL9, CD74) ([1]; listed as iDUX4-CTDmL1dL2): did not block the panel of ISGs
